Experimental data from the nanobody polyreactivity screen of Harvey et al. (2022).

Test: yeast display, Sf9 membrane polyspecificity reagent, FACS + sequencing; frameworks hold sequencing errors
Outline: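 Synthetic nanobody libraries on Saccharomyces cerevisiae BJ5465 were galactose-induced for 36–48 hours, stained 1 hour at 4 °C with 10% biotinylated, detergent-solubilized Sf9 membrane reagent and enriched on streptavidin microbeads. FACS then separated cells into low and high (top ~1%) gates by anti-HA (expression) and streptavidin (reagent binding) fluorescence. Genes were colony-PCR amplified, MiSeq 2 × 250 sequenced and CDR-length filtered. A clone's polyreactivity label is that of its gate of origin.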

Row | Sequence | polyreactivity (PSR sort gate)
1 | QVQHVESGGGLVQAGGSLRLRCAASGSIFVHNDMGWYRQAPGKERDLVAAISSGSSTNYADSVKGRFTISRDNAKNTVFLQMNSLKPEDTAVYYCAVTSPYSHGYSYWGADSRDYWGQGTQVTVSS | low polyreactivity
2 | QVQLVESGGGLVQAGGSLRLSCAASGFIFRIYAMGWYRQAPGKERELVAAITWDGVSTYYADSVKGRFTISRDNAKNTVYLQMNSLKPEDTAVYYCAARKRSYPYYYWGQGTQVTVSS | high polyreactivity
3 | QVQLVESGGGLVQAGGSLRLSCAASGFTFIRNAMGWYRQAPGKERELVAAISKRGGSTNYADSVKGRFTISRDNAKNTVYLQMNSLKPEDTAVYYCAAGGQVAWLDYYPMDYWGQGTQVTVSS | low polyreactivity
4 | QVQLVESGGGLVQAGGSLRLSCAASGRIFPLYDMGWYRQAPGKERELVAAISSGGTTYYADSVKGRFTISRDNAKNTVYLQMNSLKPEDTEVYYCARRPAQRWGRFDYWVQGTQVTVSS | low polyreactivity
5 | QVQLVDSGGGLVQAGGSLRLSCAASGIIFRAYAMGWSRAAPGKERELVAAISRRGSTTYYADSVKGRFTISRDNAKNTVYLQMNSLKPEDTAVYFCAADYAGPTGFDYWGQGTQVTVSS | high polyreactivity
6 | QVQLVESGGGLVQAGGSLRLSCAASGFTIGNYAMGWYRQAPGKERELVAAISSSGTSTYYADSVKGRFTISRDIAKNTVYLQMNSLKPEDTAVYYCAAEYIINYTIFEYWGQGTQLTVSS | high polyreactivity
7 | QVQLVESGGGLVQAGGSLRISCAASGSNFTRYAMGWYRQAPGKERELVAAISNRGGRTYYADSVKGRFTISRDNAKNTVYLQMNSLKPEDTGVYYCNAATTRRIPQSDNYWGQGTQVTVSS | high polyreactivity
8 | QVQLVESGGGLVQAGGSLRLSCAASGSIFGRNAMGWYIQAPGKERELVAAINSGGSTNYADSVKGRFTISRDNAKNTVYLQMNSLKPEDTAVYFCAARTYSSGRYYGYVAFYYWGQGTQVTVSS | high polyreactivity
9 | QVQLVESGGGLVQAGGSLRLSCAASGIIFDYYPMGWYRQAPGKERELVAGITRSGGRTYYADSVKGRFTISRDNAKNTVYLQMNSLKPEDTAVYYCAAQRGRRRWGGYWGQGTQVTVSS | high polyreactivity
10 | QVQLVESGGGLVQAGGSLRLSCAASGSIFSTNAMGWYRQAPGKEWELVAVITGIGGITYYADSVKGRFTISRDNAKNTDYLQMNSLKPEDTAVYYCAADPISEFYWGVKDRYDYWGQGTQVTVSS | low polyreactivity
11 | QVQLVESGGGLVQAGGSIRLSCAASGRTFDSNAIGWYRQAAGKEWQLVAAISCSGDTTYDADTVKGRFTISRDNAKNTVYLQINILKPEDTAVYYCAADHDSYDSGYDYWGQGTQGTVSS | low polyreactivity
12 | QVQLVESGGGLVQAGGSLRLSCAASGSTFPQNVMGWYRQAPGKVRELVAAITRSAGSTYYADSVKGRFTISRDNPKNTVYLQMNSLKPEDTAVYNCNTGRQRGSYYYDYWGQGTQVTVSS | high polyreactivity
13 | QVQLVESGGGLVQAGGSLRLSCAASGRILYYYAMGWYRQAPGKERELVATITRTTGSTYYADSVKGRFTISRDNAKNTVYLQMNSLKPEDTAVYYCAARWGRWIRDNYWGQGTQVSVSS | high polyreactivity
14 | QVQLVESGGGLVQEGGSLRLSCAASGYIFVRYAMGWYRQAPGKEREFVAAISSSGGSTRYADSVKGRFTISRDNAKYTVYLQMHRLKPEDTPVYYCAATSVARNGSPMYYWGQGTLVTVSS | high polyreactivity
15 | QVQLVESGGGLVQAGGSLRLSCAASGRIFSYTAMGWYRQAPGKERELVAAITRVDNTNYADSVKGRFTISRDNAKNTVYLQMNSLKPEDTAVYYCNARQHQVRWWLREFDYWGQGTQVTVSS | low polyreactivity
16 | QVQLVESGGGLVQAGGSLRLSCAATGFTFRWYAMGWYRQAPGKERELVAAITSDDNTYYADSVKGRFTISRDNAKNTVYLQMNSLKPEDTAVYYCAAEYADYWTYIMGYWGQGTQVTVSS | low polyreactivity
17 | QVQLVESGGGLVQAGGSLRLSCAASGYIFGPNAMGWYRQAPGKERELVAAISSRGDSTFYADSVKGRFTISRDNAKNTDYLQMNSLKPEDTAVYYCAAEEITQFYVGSYLDDYWGQGTQVTVSS | low polyreactivity
18 | QVQLVESGGGLVQAGGSLRLSCAASGSTFIRNAMGWYRQAPGKERELVAAISGSGVSTRYADSVKGRFTISRDNAKNTVYLQMNSLKPEDTAVYYCAKRKQYPYTMGYWGQGTQVTVSS | high polyreactivity
19 | QVQLVESGGGLVQAGGSLRLSCAPSGRIFYGYAMGWYRQAPGKEREFVARINVSGTSTFYADSVKGRFTISRDNAKNTVYLQMNSLKPEDTAVYYCAARGLPSNYYYYVHGYIMDYWGQGTHVTVSS | low polyreactivity
20 | QVQLVESGGGLVQAGGSLRLSCAASGFTFGSYAMGWYRQAPGKERELVAAISTSGDTTYYADSVKGRFTISRDNAKNTVYLQMNSLKPEDTAVYYCAAYDWGWPYTLIPFYYWGQGTQVTVSS | low polyreactivity
21 | QVQLVESGGGLVQAGGSLRLSCAASGSIFAANAMGWYRQAPGKERELVADITKSGGSTYYADSVKGRFTISRDNAKNTVYLQMNSLKPEDTAVYYCNADDTQLESFAPGHGYDYWGQGTQVTVSS | low polyreactivity
22 | QVQLVESGGGLVQAGGSLRLSCAASGSTLYGYAMGWYRQAPGNERELVAAISVSGGRTYYADSVKGRFTISRDNAKNTVYLQMNSLKPEDTAVYYCAAYGTTRMDYWGQGTQVTVSS | high polyreactivity

Row | Sequence | polyreactivity (PSR sort gate)
23 | QVQLVESGGGLVQAGGSLRLSCAASGRIFPVNTMGWYREAPGKERELVAAITSGGGTYYADSVKGRFTISRDNAKNTVYLQMNSLKPEDTAVYYCNAPEGRKPYDSWGQGTQVTVSS | low polyreactivity
24 | QVQLVESGGGLVQAGGSLRLSCAASGRIFYYYAMGWYRQAPGKERELVADITWSGGSTYYADSVKGRFTISRDNAKNTVYLLRNSLKPEDTAVYYCNAVSFNYLLEYDYWGQGTQVTVSS | high polyreactivity
25 | QVHLVDSGGGLVQAGGSLRLSCAASGRIFSPYAMGWYRQAPGKERELVASINYSGGSTYADSVKGRFTISRDNAKNTVYLQMNSLKPEDTAVYYCAAEDIGRYYRLDYWGQGTQVSVSS | low polyreactivity
26 | QVQLQESGGGLVQAGGSPRLSCAESDNIYPDSVICWYRQAPGKERELVATIGFGATTNYADSVKGRLTISRDNAKNTVYLQMNSLKPEDTAVYYCAADPLNYEYFCYWGQGTQVTVSS | low polyreactivity
27 | QVQLVESGGGLVQAGGSLRLSCAASGSIFVPYAMGWYRQAPGKERELVAAINHGGGRTYADSVKGRFTISRDNAKNTVYLQMNSLKPEDTAVYYCAADGAHKIGYYRYYYWGQGTQVTVSS | low polyreactivity
28 | QVQLVESGGGLVQAGGSLRLSCAASGSIFPIYAMGWYRQAPGKERELVAAIDSSGGSTYYADSVKGRFTISRDNAKNTVYLQMNSLKPEDTAVYYCAADFGSKSTPYDYWGQGTQVTVSS | low polyreactivity
29 | QVQLVESGGGLVQAGGSLRLSCAASGNTFFVYAMGWYRQAPGKERELVADINWSTGSTYYADFVKGRFTLSRDNAKNTVYLQMNSLKPEDTAVYYCAAEAYYYVIFHGSWYTDDYWGQGTQVTVSS | low polyreactivity
30 | QVQLVESGGGLVQAGGSLRLSCAASGRTFQYYAMGWYRQAPGKERELVAAISWSGASTYYADSVKGRFTISRDNAKNTVYLQMNSLKPEDTAVYYCAVKAGGSRYGYWGQGTHVTVSS | high polyreactivity
31 | QVQLVESGGGLVQAGGSLRLSCAASGLIFGWYAMGWYRQAPGKERELVASISRSGGSTYYADSVKGRFTISRDNAKNTVYLQMNSLKPEDTAVYYCAALYYGFRLTYGYDYWGQGTQVTVSS | high polyreactivity
32 | QVQLVESGGGLVQAGGSLRLSCAASGRTFYDNAMRWYRQAPGKERELDAAITNGGRTNYADSVKGRFTISRDNAKNTVYLQMNSLKPEDTAVYYCAADFWPWYRYYSGGVDYWGQGTQVTVSS | high polyreactivity
33 | QVQLVESGGGLVQAGGSLRLSCAASGRIFKYNAMGWYRQAPGKERELVAAISGRGVSTYYADSVKGRFTISRDNAKNTVYLQMNSLKPEDTAVYYCAAETVHGSADFDYWGQGTKVTVSS | low polyreactivity
34 | QVQLVESGGGLVQAGGSLRLSCAASGSTSDINAMGWYRQAPGKERELVAVITFSGGSTNYADSVKGRFTISRDNAKNTVYLQMHSLKPEDTAVYYCNADTLTTTRRFNPYDYWGQGTQVTVSS | low polyreactivity
35 | QDQLVESGGGLVQAGGSLRLSCAASGSTFVSNAMVWYRQAPGKERELVAAISSSGGRTSYADSVKGRFTISRDNAKNTVYLQMNSLKPEDTAVYYCAARFKSVDYVQYYYWGQGTQVTVSS | low polyreactivity
36 | QVQLVESGGGLVQAGGSLRLSCAASGSIFSPYTMGWYRQAPGKEREFVAAIRWTTGSTYYADSVKGRFTISRDNAKNTVYLQMNSLKPEDTAVYYCAADPSYRSRLFRSYEYDYWGQGTQVTVSS | high polyreactivity
37 | QVQLVESGGGLVQAGGSLRLSCAASGFTFRWYAMGWYRQAPGKERELVAAITYRGGRTYYADSVKGRFTISRDNAKNTVYLQMNSLKPEDTAVYYCAAKLSLNGRYDYWGQGTQVNVSS | high polyreactivity
38 | QVQLVESGGGLVQAGGSLRLSCAASGSIFRRNAMGWYRQAPGKERELVAVITRSGGSTYYADSVKGRFTISRDNAKTTVDLQMNSLKPEDTAVYYCDASRSSTRSFDYWGQGTQVTVSS | high polyreactivity
39 | QVQLVESGGGLVQAGGSLRLSCAASGFIFRDYAMGWYRQAPGKERELVAAIDYSGGSTNYADSVKGRFTISRDNAKNTVYLQMNSLKPEDTAVYYCNAEYTWHRGYEYWGQGTQVTVSS | low polyreactivity
40 | QVQLVESGGGLVQAGGSLRLSCAASGRTFAVYTMGWYRQAPGKERELVARIRYSGGNTYYADSVKGRFTISRENAKNTVYLQMNSLKPEDTAVYYCAARSRYRIYASRNFDYWGQGTQVTVSS | high polyreactivity
41 | QVQLVETGGGLVQAAGSLRLSSAASGSTFLANTMGWYRQEPGKEREFVAAITRRGGSTYYADSVKGRFTISRDNAKNTVYLQMNSLKPEDTAVYYCNADWYFQYPYDYWGQGTQVTVSS | low polyreactivity
42 | QVQLLETGGGLVQAGGSLRLSCAASGSILRWYVRGWYRQAPGKERELVADIDSGGSTNYADSVKGRFTISRDNAKNTVFLQMNSLKPEDTAVYYCASDVPSRSRYGVYRRDGMDYWGQGTQVTVSS | low polyreactivity
43 | QVQLVESGGGLVQAGGRLRLSCAASAFTFYYYAMGWYRPAPGKERELVAAISWSGGSTYYADSVKGRFTFSRDNAKNTVYLQMNSLKPEDTAVYYCAADVYKQYGYYYWGQGTQVTVSS | high polyreactivity
